Laboratory results: article PMC2835468 (Matrix biology : journal of the International Society for …, 2009)

Experiments:
[1] = target: T1, ADAMTS4-4 (human ADAMTS-4 deletion mutant, C-terminal FLAG-tag) (human, UniProt O75173 213-519); experiment: enzyme inhibition kinetics
T1 sequence (looked up): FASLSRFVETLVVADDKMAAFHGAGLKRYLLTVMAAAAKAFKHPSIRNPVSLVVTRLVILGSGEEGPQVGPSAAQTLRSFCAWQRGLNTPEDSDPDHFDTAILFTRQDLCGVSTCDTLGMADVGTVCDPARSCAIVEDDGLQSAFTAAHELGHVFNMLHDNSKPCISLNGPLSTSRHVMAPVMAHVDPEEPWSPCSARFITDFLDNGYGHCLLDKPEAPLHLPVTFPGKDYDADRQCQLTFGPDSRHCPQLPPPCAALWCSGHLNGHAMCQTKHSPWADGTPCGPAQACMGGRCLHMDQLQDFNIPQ

[2] = target: T2, ADAMTS4-1 (full-length human ADAMTS-4, C-terminal FLAG-tag) (human, UniProt O75173 213-837); experiment: enzyme inhibition kinetics
T2 sequence (looked up): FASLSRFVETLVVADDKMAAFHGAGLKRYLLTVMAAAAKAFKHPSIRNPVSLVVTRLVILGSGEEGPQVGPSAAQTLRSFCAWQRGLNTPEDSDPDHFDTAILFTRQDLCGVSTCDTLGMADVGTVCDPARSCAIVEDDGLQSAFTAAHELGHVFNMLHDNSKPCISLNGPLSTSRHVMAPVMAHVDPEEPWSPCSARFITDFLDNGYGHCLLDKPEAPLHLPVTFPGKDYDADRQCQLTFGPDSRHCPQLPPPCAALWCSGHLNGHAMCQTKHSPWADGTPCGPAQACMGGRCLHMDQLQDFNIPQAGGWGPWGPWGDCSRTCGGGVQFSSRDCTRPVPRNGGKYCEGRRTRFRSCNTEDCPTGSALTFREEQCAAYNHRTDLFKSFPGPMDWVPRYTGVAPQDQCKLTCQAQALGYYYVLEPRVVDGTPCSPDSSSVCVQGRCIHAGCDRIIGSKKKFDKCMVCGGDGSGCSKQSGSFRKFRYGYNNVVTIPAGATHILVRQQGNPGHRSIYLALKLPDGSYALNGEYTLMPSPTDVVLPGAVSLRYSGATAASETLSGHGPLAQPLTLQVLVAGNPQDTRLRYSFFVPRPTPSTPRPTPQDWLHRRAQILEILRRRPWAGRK

B1: FLAG-tagged glycosylated human TIMP-3 (full-length tissue inhibitor of metalloproteinases 3), expressed in HEK293 (natural protein, UniProt P35625 24-211, looked up)
chain: CTCSPSHPQDAFCNSDIVIRAKVVGKKLVKEGPFGTLVYTIKQMKMYRGFTKMPHVQYIHTEASESLCGLKLEVNKYQYLLTGRVYDGKMYTGLCNFVERWDQLTLSQRKGLNYRYHLGCNCKIKSCYYLPCFVTSKNECLWTDMLSNFGYPGYQSKHYACIRQKGGYCSWYRGWAPPDKSIINATDP
modifications: glycosylated (only the 27 kDa glycosylated form remained after purification; single N-glycosylation site in the C-terminal domain)
Ki [1]: 0.38 nM
Ki [2]: 0.39 nM
